Experimental data: patent US20230038638A1, “COMPLEMENT FACTOR I-RELATED COMPOSITIONS AND METHODS” (published 2023)
Changes are numbered by the printed parent chain.

Tests used:
[1] = molecular target: soluble human C3b (human) (UniProt P01024)
human C4b (human) [2] = molecular target: T1, human C4b (human) (UniProt P0C0L4)
T1 sequence: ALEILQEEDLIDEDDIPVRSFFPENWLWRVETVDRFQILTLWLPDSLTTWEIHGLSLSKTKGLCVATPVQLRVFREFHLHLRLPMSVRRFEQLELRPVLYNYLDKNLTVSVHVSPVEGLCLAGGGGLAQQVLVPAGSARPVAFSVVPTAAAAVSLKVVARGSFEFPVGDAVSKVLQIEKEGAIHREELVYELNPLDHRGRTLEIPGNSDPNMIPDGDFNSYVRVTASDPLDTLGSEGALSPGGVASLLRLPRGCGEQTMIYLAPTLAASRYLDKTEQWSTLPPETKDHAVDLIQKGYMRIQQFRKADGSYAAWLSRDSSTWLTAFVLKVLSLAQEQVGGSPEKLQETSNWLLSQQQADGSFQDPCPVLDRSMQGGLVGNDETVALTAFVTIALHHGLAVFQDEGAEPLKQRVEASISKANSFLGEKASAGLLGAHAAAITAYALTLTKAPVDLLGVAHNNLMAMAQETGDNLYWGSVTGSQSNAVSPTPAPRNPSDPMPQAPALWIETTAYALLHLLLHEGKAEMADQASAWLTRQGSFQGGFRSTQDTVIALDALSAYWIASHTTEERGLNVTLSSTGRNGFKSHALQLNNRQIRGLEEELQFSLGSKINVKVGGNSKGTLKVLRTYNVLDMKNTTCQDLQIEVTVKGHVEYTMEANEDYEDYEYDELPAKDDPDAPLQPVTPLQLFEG

human C4b (human) [3] = molecular target: T2, human C4b (human) (UniProt P0C0L5)
T2 sequence: T1 sequence with A151T, D317G, P364L, C365S, L368I, D369H, N420S, V451A, L454R, S530A

| Substance | iC3b Screen Ref Fold (fold of CFI-HSA wild type) [1] | C4b Screen Ref Fold (fold of CFI-HSA wild type) (human C4b (human) [2]) | other results |
| --- | --- | --- | --- |
| CFI-HSA N531G; R462K; F464Y (enzyme) | 0.78 | 6.27 | – |
| CFI-HSA variant N531H (enzyme) | – | – | iC3b Screen Ref Fold (fold of reference) [1]: 0.74; C4b Screen Ref Fold (fold of reference) (human C4b (human) [2]): 1.16 |
| CFI-HSA variant N422K; E457G; E461Q; N531G (enzyme) | 2.02 | 3.52 | – |
| CFI-HSA P535I (enzyme) | 0.65 | 0.62 | – |
| CFI-HSA-FH_CCP1-4 fusion, Y408L; N531G; E457G; E461Q; R462K; F464Y; GGSSGG (SEQ ID NO: 6); CCP_1-4 (enzyme) | – | – | iC3b Screen Ref Fold (fold of reference) [1]: 0.04; C4b Screen Ref Fold (fold of reference) (human C4b (human) [2]): 1.28 |
| CFI-HSA N531G; E457G; R462K (enzyme) | 1.92 | 7.02 | – |
| CFI-HSA variant P558S (enzyme) | – | – | iC3b Screen Ref Fold (fold of reference) [1]: 1.56; C4b Screen Ref Fold (fold of reference) (human C4b (human) [2]): 0.77 |
| CFI-HSA fusion WT; GGSSGG (SEQ ID NO: 6); fH(ccp1); CR1(ccp16); fH(ccp3); fH(ccp4) (from UniProt P17927) (enzyme) | – | – | iC3b Screen Ref Fold (fold of reference) [1]: 0; C4b Screen Ref Fold (fold of reference) (human C4b (human) [2]): 0.59 |
| CFI-HSA T407G (enzyme) | 0.59 | 0.11 | – |
| CFI-HSA variant P558S; S507A (enzyme) | -0.04 | 0.08 | – |
| CFI-HSA variant P558S; F559L; I560V; Y563H (enzyme) | – | – | iC3b Screen Ref Fold (fold of reference) [1]: 1.24; C4b Screen Ref Fold (fold of reference) (human C4b (human) [2]): 0.63 |
| CFI-HSA D506W (enzyme) | 0.03 | 0.01 | – |
| CFI-HSA Y408L; N531G; F464Y (enzyme) | 1 | 5.93 | – |
| CFI-HSA E461Q; F464Y (enzyme) | 1.11 | 6.36 | – |
| CFI-HSA F464A (enzyme) | 0.02 | -0.01 | – |
| CFI-HSA variant G469L; R456N; K458A (enzyme) | – | – | iC3b Screen Ref Fold (fold of reference) [1]: 0; C4b Screen Ref Fold (fold of reference) (human C4b (human) [2]): -0.07 |
| CFI-HSA T407G; Y408L; N531G (enzyme) | 1.43 | 0.46 | – |
| CFI-HSA D425F (enzyme) | 1.91 | 1.6 | – |
| CFI-HSA S507A; GGSSGG (SEQ ID NO: 6); CCP_1-4 (enzyme) | 0 | 0.43 | – |
| CFI-HSA variant K387G (enzyme) | 0.23 | 0.37 | – |

| Substance | iC3b Screen Ref Fold (fold of CFI-HSA wild type) [1] | C4b Screen Ref Fold (fold of CFI-HSA wild type) (human C4b (human) [2]) | other results |
| --- | --- | --- | --- |
| CFI-HSA variant Y393G (enzyme) | 0.71 | -0.01 | – |
| CFI-HSA N531G; E457G; E461Q; ΔC-term (Δ558-PFISQYNV (SEQ ID NO: 14)-565) (enzyme) | – | – | C4b Screen Ref Fold (fold vs CFI-HSA wild type) (human C4b (human) [3]): 3.57; iC3b Screen Ref Fold (fold vs CFI-HSA wild type) [1]: 0.5 |
| CFI-HSA variant 420-DGNK (SEQ ID NO: 15)-424 --> GG (enzyme) | – | – | C4b Screen Ref Fold (fold vs CFI-HSA wild type) (human C4b (human) [3]): 0.07; iC3b Screen Ref Fold (fold vs CFI-HSA wild type) [1]: 0.15 |
| CFI-HSA variant F559L; V565T (enzyme) | 0.54 | – | C4b Screen Ref Fold (fold of CFI-HSA wild type) (human C4b (human) [3]): 0.28 |
| CFI-HSA Y408L; E457G; R462K; F464Y; N531G; GGSSGG (SEQ ID NO: 6); CR1 (ccp15-17) (from UniProt P17927) (enzyme) | – | – | C4b Screen Ref Fold (fold vs CFI-HSA wild type) (human C4b (human) [3]): 2.74; iC3b Screen Ref Fold (fold vs CFI-HSA wild type) [1]: 0.02 |
| CFI-HSA D549M (enzyme) | – | – | C4b Screen Ref Fold (fold vs CFI-HSA wild type) (human C4b (human) [3]): 0.23; iC3b Screen Ref Fold (fold vs CFI-HSA wild type) [1]: 0.45 |
| CFI-HSA variant I322V; V323I; R327P (enzyme) | – | – | C4b Screen Ref Fold (fold vs CFI-HSA wild type) (human C4b (human) [3]): 0.38; iC3b Screen Ref Fold (fold vs CFI-HSA wild type) [1]: 0.36 |
| CFI-HSA variant K504G (enzyme) | – | – | C4b Screen Ref Fold (fold vs CFI-HSA wild type) (human C4b (human) [3]): 0.15; iC3b Screen Ref Fold (fold vs CFI-HSA wild type) [1]: 0.17 |
| CFI-HSA variant E457G; P535G; WT; GGSSGG (SEQ ID NO: 6); CR1(ccp15-17) (from UniProt P17927) (enzyme) | 0.07 | – | C4b Screen Ref Fold (fold of CFI-HSA wild type) (human C4b (human) [3]): 3.89 |
| CFI-HSA D549W (enzyme) | – | – | C4b Screen Ref Fold (fold vs CFI-HSA wild type) (human C4b (human) [3]): 0.25; iC3b Screen Ref Fold (fold vs CFI-HSA wild type) [1]: 0.68 |
| CFI-HSA variant N159Q (enzyme) | – | – | C4b Screen Ref Fold (fold vs CFI-HSA wild type) (human C4b (human) [3]): 0.75; iC3b Screen Ref Fold (fold vs CFI-HSA wild type) [1]: 2.21 |
| fH_CCP1-4; GGSS(11); wt hCFI (enzyme) | – | – | C4b Screen Ref Fold (fold vs CFI-HSA wild type) (human C4b (human) [3]): 1.49; iC3b Screen Ref Fold (fold vs CFI-HSA wild type) [1]: 0.69 |
| CFI-HSA variant N531G; WT; GGSSGG (SEQ ID NO: 6); CR1(ccp15-17) (from UniProt P17927) (enzyme) | 0.05 | – | C4b Screen Ref Fold (fold of CFI-HSA wild type) (human C4b (human) [3]): 5.3 |
| CFI-HSA variant E457G; GGSSGG (SEQ ID NO: 6); CR1(ccp1-3) (from UniProt P17927) (enzyme) | -0.04 | – | C4b Screen Ref Fold (fold of CFI-HSA wild type) (human C4b (human) [3]): 1.73 |
| CFI-HSA R365A (enzyme) | – | – | C4b Screen Ref Fold (fold vs CFI-HSA wild type) (human C4b (human) [3]): 0.56; iC3b Screen Ref Fold (fold vs CFI-HSA wild type) [1]: 0.5 |
| CFI-HSA variant Δ(K1-P305) (enzyme) | – | – | C4b Screen Ref Fold (fold vs CFI-HSA wild type) (human C4b (human) [3]): 0.06; iC3b Screen Ref Fold (fold vs CFI-HSA wild type) [1]: 0.04 |
| CFI-HSA variant V323A (enzyme) | – | – | C4b Screen Ref Fold (fold vs CFI-HSA wild type) (human C4b (human) [3]): 0.01; iC3b Screen Ref Fold (fold vs CFI-HSA wild type) [1]: 0.05 |
| CFI-HSA variant 514-MDANNVT (SEQ ID NO: 13)-520 --> NG (enzyme) | – | – | C4b Screen Ref Fold (fold vs CFI-HSA wild type) (human C4b (human) [3]): 0.12; iC3b Screen Ref Fold (fold vs CFI-HSA wild type) [1]: 0.04 |
| CFI-HSA N531G; E457G; E461Q; R557K (enzyme) | – | – | C4b Screen Ref Fold (fold vs CFI-HSA wild type) (human C4b (human) [3]): 4.69; iC3b Screen Ref Fold (fold vs CFI-HSA wild type) [1]: 1.81 |

Continued, in another order:

| iC3b Screen Ref Fold (fold of CFI-HSA wild type) [1] | C4b Screen Ref Fold (fold of CFI-HSA wild type) (human C4b (human) [2]) | Substance | other results |
| --- | --- | --- | --- |
| 0.46 | 3.18 | CFI-HSA variant R557A; N531M; Y403F; K504Y; E457G; E461L (enzyme) | – |
| -0.05 | 0.02 | CFI-HSA D506Y (enzyme) | – |
| 1.24 | 6.79 | CFI-HSA Y408L; N531G; E461Q; R462K (enzyme) | – |
| 0.91 | 2.18 | CFI-HSA D425M (enzyme) | – |
| 1.03 | 4.44 | CFI-HSA Y408L; E461Q (enzyme) | – |
| 1.11 | 4.33 | CFI-HSA E457G; R462K (enzyme) | – |
| 2.21 | 1.13 | CFI-HSA D425S (enzyme) | – |
| 0.87 | 3.74 | CFI-HSA variant T377G; N422K; D425K; E457G; E461Q; E530F; N531G (enzyme) | – |
| -0.02 | 0.1 | CFI-HSA variant E457G; S507A (enzyme) | – |
| 1.33 | 2.53 | CFI-HSA Y408L; E461Q; R462K (enzyme) | – |
| 1.15 | 2.93 | CFI-HSA variant T377G; Y408M; N422K; E457G; E461Q; E530F; N531G (enzyme) | – |
| 0.37 | 1.24 | CFI-HSA P535Q (enzyme) | – |
| 1.42 | 1.39 | CFI-HSA K534Y (enzyme) | – |
| 0.03 | – | CFI-HSA variant Y408L; WT; GGSSGG (SEQ ID NO: 6); CR1(ccp15-17) (from UniProt P17927) (enzyme) | C4b Screen Ref Fold (fold of CFI-HSA wild type) (human C4b (human) [3]): 3.64 |
